± gives the uncertainty stated by the source.

Experimental findings from the Human Domainome abundance scans (Beltran et al. 2025) are described below.

B1: Cyclin-F, residues 28 to 80; numbered along this chain, P41002 (parent)
chain: RNLTILSLPEDVLFHILKWLSVEDILAVRAVHSQLKDLVDNHASVWACASFQE

Variants of B1 are the subject of this series. The series is described as follows: abundance fitness (aPCA) (normalised: wild type 0, dead -1); higher = more abundant; growth selection in yeast, the domain comes from the species named. The conditions noted are these: Homo sapiens.
For RNLTILSLPEDVLFHILKWLSVEDILAVRAVHSVLKDLVDNHASVWACASFQE, the abundance fitness is -0.126 ± 0.061.

For the variant RNLTILSLPEDVLFHILKWLSVEDILAVRAVHSALKDLVDNHASVWACASFQE, the abundance fitness was -0.111 ± 0.062. The result for RNLTILSLPEDVLFHILKWLSVEDILAVRAVHSCLKDLVDNHASVWACASFQE reads -0.248 ± 0.086; that for RNLTILSLPEDVLFHILKWLSVEDILAVRAVHSILKDLVDNHASVWACASFQE, -0.129 ± 0.088. With RNLTILSLPEDVLFHILKWLSVEDILAVRAVHSELKDLVDNHASVWACASFQE, the abundance fitness is -0.455 ± 0.078. On to RNLTILSLPEDVLFHILKWLSVEDILAVRAVHSNLKDLVDNHASVWACASFQE, for which the abundance fitness was -0.417 ± 0.13.

Regarding RNLTILSLPEDVLFHILKWLSVEDILAVRAVHSDLKDLVDNHASVWACASFQE, the abundance fitness is -0.446 ± 0.087. The result for RNLTILSLPEDVLFHILKWLSVEDILAVRAVHSRLKDLVDNHASVWACASFQE reads 0.109 ± 0.062; that for RNLTILSLPEDVLFHILKWLSVEDILAVRAVHSPLKDLVDNHASVWACASFQE, -0.807 ± 0.11; that for RNLTILSLPEDVLFHILKWLSVEDILAVRAVHSFLKDLVDNHASVWACASFQE, -0.4 ± 0.1. As to RNLTILSLPEDVLFHILKWLSVEDILAVRAVHSMLKDLVDNHASVWACASFQE, the abundance fitness is -0.156 ± 0.075.

For the variant RNLTILSLPEDVLFHILKWLSVEDILAVRAVHSSLKDLVDNHASVWACASFQE, the abundance fitness is -0.06 ± 0.065. Consider RNLTILSLPEDVLFHILKWLSVEDILAVRAVHSHLKDLVDNHASVWACASFQE, for which the abundance fitness was -0.121 ± 0.1.

RNLTILSLPEDVLFHILKWLSVEDILAVRAVHSWLKDLVDNHASVWACASFQE: the abundance fitness was -0.753 ± 0.1. RNLTILSLPEDVLFHILKWLSVEDILAVRAVHSQHKDLVDNHASVWACASFQE: the abundance fitness is -0.831 ± 0.34.

Take RNLTILSLPEDVLFHILKWLSVEDILAVRAVHSQAKDLVDNHASVWACASFQE: the abundance fitness is -0.772 ± 0.12. As to RNLTILSLPEDVLFHILKWLSVEDILAVRAVHSQYKDLVDNHASVWACASFQE, the abundance fitness is -0.687 ± 0.41. RNLTILSLPEDVLFHILKWLSVEDILAVRAVHSQQKDLVDNHASVWACASFQE: the abundance fitness is -0.861 ± 0.18.

Take RNLTILSLPEDVLFHILKWLSVEDILAVRAVHSQWKDLVDNHASVWACASFQE: the abundance fitness was -0.567 ± 0.13. As to RNLTILSLPEDVLFHILKWLSVEDILAVRAVHSQFKDLVDNHASVWACASFQE, the abundance fitness was -0.172 ± 0.16. With RNLTILSLPEDVLFHILKWLSVEDILAVRAVHSQRKDLVDNHASVWACASFQE, the abundance fitness is -0.884 ± 0.14.

In the case of RNLTILSLPEDVLFHILKWLSVEDILAVRAVHSQKKDLVDNHASVWACASFQE, the abundance fitness is -0.805 ± 0.2. With RNLTILSLPEDVLFHILKWLSVEDILAVRAVHSQIKDLVDNHASVWACASFQE, the abundance fitness was -0.158 ± 0.22. RNLTILSLPEDVLFHILKWLSVEDILAVRAVHSQCKDLVDNHASVWACASFQE: the abundance fitness was -0.643 ± 0.22. RNLTILSLPEDVLFHILKWLSVEDILAVRAVHSQVKDLVDNHASVWACASFQE: the abundance fitness is -0.768 ± 0.11.

Consider RNLTILSLPEDVLFHILKWLSVEDILAVRAVHSQPKDLVDNHASVWACASFQE, for which the abundance fitness is -0.842 ± 0.18.

RNLTILSLPEDVLFHILKWLSVEDILAVRAVHSQEKDLVDNHASVWACASFQE: the abundance fitness is -0.745 ± 0.14. As for RNLTILSLPEDVLFHILKWLSVEDILAVRAVHSQDKDLVDNHASVWACASFQE, the abundance fitness was -0.528 ± 0.29. The result for RNLTILSLPEDVLFHILKWLSVEDILAVRAVHSQSKDLVDNHASVWACASFQE reads -0.786 ± 0.14. Take RNLTILSLPEDVLFHILKWLSVEDILAVRAVHSQLKDLCDNHASVWACASFQE: the abundance fitness was -0.245 ± 0.12. Take RNLTILSLPEDVLFHILKWLSVEDILAVRAVHSQLKDLADNHASVWACASFQE: the abundance fitness is -0.341 ± 0.11. In the case of RNLTILSLPEDVLFHILKWLSVEDILAVRAVHSQLKDKVDNHASVWACASFQE, the abundance fitness was -0.34 ± 0.17.

On to RNLTILSLPEDVLFHILKWLSVEDILAVRAVHSQLKDCVDNHASVWACASFQE, for which the abundance fitness turned out to be 0.17 ± 0.099. In the case of RNLTILSLPEDVLFHILKWLSVEDILAVRAVHSQLKDQVDNHASVWACASFQE, the abundance fitness is -0.682 ± 0.2. Turning to RNLTILSLPEDVLFHILKWLSVEDILAVRAVHSQLKDFVDNHASVWACASFQE, the abundance fitness is 0.07 ± 0.13. With RNLTILSLPEDVLFHILKWLSVEDILAVRAVHSQLKDHVDNHASVWACASFQE, the abundance fitness is -0.12 ± 0.2.

Turning to RNLTILSLPEDVLFHILKWLSVEDILAVRAVHSQLKDWVDNHASVWACASFQE, the abundance fitness is -0.214 ± 0.12.

In the case of RNLTILSLPEDVLFHILKWLSVEDILAVRAVHSQLKDAVDNHASVWACASFQE, the abundance fitness is -0.075 ± 0.094. Turning to RNLTILSLPEDVLFHILKWLSVEDILAVRAVHSQLKDYVDNHASVWACASFQE, the abundance fitness was -0.151 ± 0.16. For RNLTILSLPEDVLFHILKWLSVEDILAVRAVHSQLKDMVDNHASVWACASFQE, the abundance fitness was -0.008 ± 0.13. Consider RNLTILSLPEDVLFHILKWLSVEDILAVRAVHSQLKDIVDNHASVWACASFQE, for which the abundance fitness came to 0.244 ± 0.17. Regarding RNLTILSLPEDVLFHILKWLSVEDILAVRAVHSQLKDVVDNHASVWACASFQE, the abundance fitness is 0.273 ± 0.088.

In the case of RNLTILSLPEDVLFHILKWLSVEDILAVRAVHSQLKDTVDNHASVWACASFQE, the abundance fitness is -0.133 ± 0.15. With RNLTILSLPEDVLFHILKWLSVEDILAVRAVHSQLKDNVDNHASVWACASFQE, the abundance fitness was -0.906 ± 0.26. For the variant RNLTILSLPEDVLFHILKWLSVEDILAVRAVHSQLKDGVDNHASVWACASFQE, the abundance fitness is -0.561 ± 0.095. With RNLTILSLPEDVLFHILKWLSVEDILAVRAVHSQLKDPVDNHASVWACASFQE, the abundance fitness is -0.935 ± 0.27. For the variant RNLTILSLPEDVLFHILKWLSVEDILAVRAVHSQLKDEVDNHASVWACASFQE, the abundance fitness is -0.872 ± 0.24. For RNLTILSLPEDVLFHILKWLSVEDILAVRAVHSQLKDDVDNHASVWACASFQE, the abundance fitness was -0.758 ± 0.18. On to RNLTILSLPEDVLFHILKWLSVEDILAVRAVHSQLKDRVDNHASVWACASFQE, for which the abundance fitness was -0.633 ± 0.11. As for RNLTILSLPEDVLFHILKWLSVEDILAVRAVHSQLKDSVDNHASVWACASFQE, the abundance fitness was -0.302 ± 0.1.
